Key:
[1] = molecular target: T1, BTN3A1 at the surface of HEK-BTN3A1 cells (human, UniProt O00481 30-513); experiment: flow cytometry, HEK-BTN3A1 cells
T1 construct: HEK 293T BTN2A/BTN3A KO cells transduced with a BTN3A1 expressing vector

[2] = molecular target: T2, PD-1 at the surface of Jurkat-PD-1 cells (human, UniProt Q15116 25-288); experiment: cell-based or functional assay
[3] = molecular target: T3, recombinant human BTN3A1 (human, UniProt O00481 30-254); experiment: SPR
T3 construct: Soluble form of the antigen used in SPR; also called rhBTN3A1; recombinant BTN3A1 protein
T3 sequence (O00481 30-254 limits assumed): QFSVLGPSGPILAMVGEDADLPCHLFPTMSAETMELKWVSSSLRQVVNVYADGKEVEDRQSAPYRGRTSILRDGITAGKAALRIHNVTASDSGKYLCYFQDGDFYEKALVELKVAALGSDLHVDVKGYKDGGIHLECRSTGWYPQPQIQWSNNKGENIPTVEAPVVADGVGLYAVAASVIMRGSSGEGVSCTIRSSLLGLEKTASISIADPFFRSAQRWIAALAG
Experimental: (§1) SPR measures the interactions between two or more biomolecules. In capture kinetics analysis, an antibody is immobilized onto a gold-plated prism. The immobilized antibody is referred to as the ligand. An injection of antigen, referred to as the analyte, is carried out, often as a concentration series. The captured analytes are removed from the sensor chip surface using a regenerating agent, for example a low pH or high ionic strength solution. If investigating binding to several analytes, the antibodies are recaptured from solution before each analyte titration series. The instrument records the changes in refractive indexes (due to the accumulation or depletion of mass) in time and plots the results as sensorgrams.
(§2) Affinity measurements with respect to BTN3A, PD-1 and PD-L1 were performed by SPR technology, for instance in a Carterra LSA Platform instrument using a soluble form of the antigen as the analyte and the antibody as the ligand. Binding was also assessed through in cellulo binding assays, on cell lines (e.g. HEK293T cells) genetically modified to express the targets of interest or genetically modified to extinct target expression.
(§3) The 69 produced bsAbs and control mAbs were also evaluated for their binding affinity to recombinant proteins by SPR assays. The equilibrium dissociation constant (KD) was then calculated for constructs showing detectable binding.

[4] = molecular target: T4, recombinant human PD-1 (human, UniProt Q15116 25-167, limits assumed); experiment: SPR
T4 construct: Soluble antigen in SPR; also called rhPD-1
T4 sequence (Q15116 25-167 limits assumed): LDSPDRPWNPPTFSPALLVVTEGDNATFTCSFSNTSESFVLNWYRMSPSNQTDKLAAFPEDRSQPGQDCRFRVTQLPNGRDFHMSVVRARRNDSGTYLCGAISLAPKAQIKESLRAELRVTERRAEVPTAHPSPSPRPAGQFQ
Experimental: as §1, §2, §3

[5] = molecular target: T2, PD-1 at the surface of Jurkat-PD-1 cells; experiment: flow cytometry, Jurkat-PD-1 cells

T1 sequence (O00481 30-513 limits assumed): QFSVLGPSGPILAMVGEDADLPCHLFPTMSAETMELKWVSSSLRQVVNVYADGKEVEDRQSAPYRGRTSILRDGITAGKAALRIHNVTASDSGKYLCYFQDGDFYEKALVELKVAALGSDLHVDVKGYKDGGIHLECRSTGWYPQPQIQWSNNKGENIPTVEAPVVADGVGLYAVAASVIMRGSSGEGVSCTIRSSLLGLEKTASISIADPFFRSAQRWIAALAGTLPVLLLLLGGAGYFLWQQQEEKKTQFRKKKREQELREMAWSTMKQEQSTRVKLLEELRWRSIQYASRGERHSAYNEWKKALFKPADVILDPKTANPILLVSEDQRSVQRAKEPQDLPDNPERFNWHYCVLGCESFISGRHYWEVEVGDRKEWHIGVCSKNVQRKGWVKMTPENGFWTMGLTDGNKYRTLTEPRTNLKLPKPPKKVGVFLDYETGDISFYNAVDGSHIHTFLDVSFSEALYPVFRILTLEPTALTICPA
T2 sequence (Q15116 25-288): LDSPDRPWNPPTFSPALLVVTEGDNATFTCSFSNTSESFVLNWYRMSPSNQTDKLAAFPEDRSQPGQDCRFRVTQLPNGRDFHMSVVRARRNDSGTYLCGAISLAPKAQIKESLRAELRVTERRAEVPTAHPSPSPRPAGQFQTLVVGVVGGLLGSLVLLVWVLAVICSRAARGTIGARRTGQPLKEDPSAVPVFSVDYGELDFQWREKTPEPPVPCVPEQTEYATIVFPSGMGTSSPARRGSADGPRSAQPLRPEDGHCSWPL

Row | Binder | MFI at 10 nM [1] | MFI at 100 nM [1] | Jurkat-PD-1 activation at 10 nM [2] | Jurkat-PD-1 activation at 100 nM [2] | Kd [3] | Kd [4] | MFI at 10 nM [5] | MFI at 100 nM [5]
1 | bsAb039 (bispecific antibody, one Fab arm anti-PD-1, two scFv anti-BTN3A; not shown: IgG1 CH1-hinge-CH2-CH3; CH2-CH3 (Fc)) heavy (part 1 of 2): QVQLVQSGVEVKKPGASVKVSCKASGYTFTNYYMYWVRQAPGQGLEWMGGINPSNGGTNFNEKFKNRVTLTTDSSTTTAYMELKSLQFDDTAVYYCARRDYRFDMGFDYWGQGTTVTVSS heavy (part 2 of 2): GGGGSGGGGSGGGGSGGGGSDIQMTQSPSSLSASVGDRVTITCHASQNINVWLSWYQQKPGKAPKLLIYKASNLHTGVPSRFTGSGSGTDFTFTISSLQPEDIATYYCQQGQTYPYTFGQGTKLEIKGGGGSGGGGSGGGGSGGGGSQVQLVQSGAEVKKPGASVKLSCKASGYIFTRYYMYWVKQRPGQGLEWIGEINPNNGGTKFNEKFKNRATLTVDKSISTAYMELSRLRSDDTAVYYCSREDDYDGTPFAMDYWGQGTLVTVSS heavy: GGGGSGGGGSGGGGSGGGGSDIQMTQSPSSLSASVGDRVTITCHASQNINVWLSWYQQKPGKAPKLLIYKASNLHTGVPSRFTGSGSGTDFTFTISSLQPEDIATYYCQQGQTYPYTFGQGTKLEIKGGGGSGGGGSGGGGSGGGGSQVQLVQSGAEVKKPGASVKLSCKASGYIFTRYYMYWVKQRPGQGLEWIGEINPNNGGTKFNEKFKNRATLTVDKSISTAYMELSRLRSDDTAVYYCSREDDYDGTPFAMDYWGQGTLVTVSS light: EIVLTQSPATLSLSPGERATLSCRASKGVSTSGYSYLHWYQQKPGQAPRLLIYLASYLESGVPARFSGSGSGTDFTLTISSLEPEDFAVYYCQHSRDLPLTFGGGTKVEIKRTVAAPSVFIFPPSDEQLKSGTASVVCLLNNFYPREAKVQWKVDNALQSGNSQESVTEQDSKDSTYSLSSTLTLSKADYEKHKVYACEVTHQGLSSPVTKSFNRGEC | 1.14e+06 MFI | 1.81e+06 MFI | – | – | 0.187 nM | 2.1 nM | 294000 MFI | 283000 MFI
2 | bsAb053 (bispecific antibody, IgG anti-PD-1, one scFv anti-BTN3A; not shown: IgG1 CH1-hinge-CH2-CH3) heavy (part 1 of 2): QVQLVQSGVEVKKPGASVKVSCKASGYTFTNYYMYWVRQAPGQGLEWMGGINPSNGGTNFNEKFKNRVTLTTDSSTTTAYMELKSLQFDDTAVYYCARRDYRFDMGFDYWGQGTTVTVSS heavy (part 2 of 2): GGGGSGGGGSGGGGSGGGGSQVQLVQSGAEVKKPGASVKLSCKASGYIFTRYYMYWVKQRPGQGLEWIGEINPNNGGTKFNEKFKNRATLTVDKSISTAYMELSRLRSDDTAVYYCSREDDYDGTPFAMDYWGQGTLVTVSSGGGGSGGGGSGGGGSGGGGSDIQMTQSPSSLSASVGDRVTITCHASQNINVWLSWYQQKPGKAPKLLIYKASNLHTGVPSRFTGSGSGTDFTFTISSLQPEDIATYYCQQGQTYPYTFGQGTKLEIK heavy: QVQLVQSGVEVKKPGASVKVSCKASGYTFTNYYMYWVRQAPGQGLEWMGGINPSNGGTNFNEKFKNRVTLTTDSSTTTAYMELKSLQFDDTAVYYCARRDYRFDMGFDYWGQGTTVTVSS light: EIVLTQSPATLSLSPGERATLSCRASKGVSTSGYSYLHWYQQKPGQAPRLLIYLASYLESGVPARFSGSGSGTDFTLTISSLEPEDFAVYYCQHSRDLPLTFGGGTKVEIKRTVAAPSVFIFPPSDEQLKSGTASVVCLLNNFYPREAKVQWKVDNALQSGNSQESVTEQDSKDSTYSLSSTLTLSKADYEKHKVYACEVTHQGLSSPVTKSFNRGEC | 494000 MFI | 1.24e+06 MFI | – | – | 0.393 nM | 0.984 nM | 187000 MFI | 424000 MFI
3 | bsAb022 (bispecific antibody, IgG anti-BTN3A, scFv anti-PD-1) heavy: QVQLVQSGVEVKKPGASVKVSCKASGYTFTNYYMYWVRQAPGQGLEWMGGINPSNGGTNFNEKFKNRVTLTTDSSTTTAYMELKSLQFDDTAVYYCARRDYRFDMGFDYWGQGTTVTVSSGGGGSGGGGSGGGGSGGGGSEIVLTQSPATLSLSPGERATLSCRASKGVSTSGYSYLHWYQQKPGQAPRLLIYLASYLESGVPARFSGSGSGTDFTLTISSLEPEDFAVYYCQHSRDLPLTFGGGTKVEIKGGGGSGGGGSGGGGSGGGGSQVQLVQSGAEVKKPGASVKLSCKASGYIFTRYYMYWVKQRPGQGLEWIGEINPNNGGTKFNEKFKNRATLTVDKSISTAYMELSRLRSDDTAVYYCSREDDYDGTPFAMDYWGQGTLVTVSSASTKGPSVFPLAPSSKSTSGGTAALGCLVKDYFPEPVTVSWNSGALTSGVHTFPAVLQSSGLYSLSSVVTVPSSSLGTQTYICNVNHKPSNTKVDKRVEPKSCDKTHTCPPCPAPEFEGGPSVFLFPPKPKDTLMISRTPEVTCVVVDVSHEDPEVKFNWYVDGVEVHNAKTKPREEQYNSTYRVVSVLTVLHQDWLNGKEYKCKVSNKALPASIEKTISKAKGQPREPQVYTLPPSREEMTKNQVSLTCLVKGFYPSDIAVEWESNGQPENNYKTTPPVLDSDGSFFLYSKLTVDKSRWQQGNVFSCSVMHEALHNHYTQKSLSLSPG light: not shown | 224000 MFI | 992000 MFI | – | – | 0.163 nM | 0.928 nM | 216000 MFI | 367000 MFI

Now those with a lower Kd [3], led by results:

Row | MFI at 10 nM [1] | MFI at 100 nM [1] | Jurkat-PD-1 activation at 10 nM [2] | Jurkat-PD-1 activation at 100 nM [2] | Kd [3] | Kd [4] | MFI at 10 nM [5] | MFI at 100 nM [5] | Binder
4 | 584000 MFI | 1.18e+06 MFI | 1.6 fold-change to medium | 6 fold-change to medium | 0.067 nM | 0.786 nM | 194000 MFI | 340000 MFI | bsAb033 (bispecific antibody, IgG anti-BTN3A, one scFv anti-PD-1; not shown: IgG1 CH1-hinge-CH2-CH3) heavy (part 1 of 2): QVQLVQSGAEVKKPGASVKLSCKASGYIFTRYYMYWVKQRPGQGLEWIGEINPNNGGTKFNEKFKNRATLTVDKSISTAYMELSRLRSDDTAVYYCSREDDYDGTPFAMDYWGQGTLVTVSS heavy (part 2 of 2): GGGGSGGGGSGGGGSGGGGSQVQLVQSGVEVKKPGASVKVSCKASGYTFTNYYMYWVRQAPGQGLEWMGGINPSNGGTNFNEKFKNRVTLTTDSSTTTAYMELKSLQFDDTAVYYCARRDYRFDMGFDYWGQGTTVTVSSGGGGSGGGGSGGGGSGGGGSEIVLTQSPATLSLSPGERATLSCRASKGVSTSGYSYLHWYQQKPGQAPRLLIYLASYLESGVPARFSGSGSGTDFTLTISSLEPEDFAVYYCQHSRDLPLTFGGGTKVEIK heavy: QVQLVQSGAEVKKPGASVKLSCKASGYIFTRYYMYWVKQRPGQGLEWIGEINPNNGGTKFNEKFKNRATLTVDKSISTAYMELSRLRSDDTAVYYCSREDDYDGTPFAMDYWGQGTLVTVSS light: not shown
5 | 588000 MFI | 1.2e+06 MFI | 1.5 fold-change to medium | 3.5 fold-change to medium | 0.071 nM | 1.9 nM | 160000 MFI | 294000 MFI | bsAb038 (bispecific antibody, IgG anti-BTN3A, one scFv anti-PD-1; not shown: IgG1 CH1-hinge-CH2-CH3) heavy (part 1 of 2): QVQLVQSGAEVKKPGASVKLSCKASGYIFTRYYMYWVKQRPGQGLEWIGEINPNNGGTKFNEKFKNRATLTVDKSISTAYMELSRLRSDDTAVYYCSREDDYDGTPFAMDYWGQGTLVTVSS heavy (part 2 of 2): GGGGSGGGGSGGGGSGGGGSEIVLTQSPATLSLSPGERATLSCRASKGVSTSGYSYLHWYQQKPGQAPRLLIYLASYLESGVPARFSGSGSGTDFTLTISSLEPEDFAVYYCQHSRDLPLTFGGGTKVEIKGGGGSGGGGSGGGGSGGGGSQVQLVQSGVEVKKPGASVKVSCKASGYTFTNYYMYWVRQAPGQGLEWMGGINPSNGGTNFNEKFKNRVTLTTDSSTTTAYMELKSLQFDDTAVYYCARRDYRFDMGFDYWGQGTTVTVSS heavy: QVQLVQSGAEVKKPGASVKLSCKASGYIFTRYYMYWVKQRPGQGLEWIGEINPNNGGTKFNEKFKNRATLTVDKSISTAYMELSRLRSDDTAVYYCSREDDYDGTPFAMDYWGQGTLVTVSS light: not shown
6 | 177000 MFI | 669000 MFI | – | – | 0.154 nM | 1.1 nM | 110000 MFI | 358000 MFI | bsAb025 (bispecific antibody, IgG anti-BTN3A, scFab anti-PD-1) heavy: QVQLVQSGVEVKKPGASVKVSCKASGYTFTNYYMYWVRQAPGQGLEWMGGINPSNGGTNFNEKFKNRVTLTTDSSTTTAYMELKSLQFDDTAVYYCARRDYRFDMGFDYWGQGTTVTVSSASTKGPSVFPLAPSSKSTSGGTAALGCLVKDYFPEPVTVSWNSGALTSGVHTFPAVLQSSGLYSLSSVVTVPSSSLGTQTYICNVNHKPSNTKVDKKVEPKSCDKTHTGGSSGSGSGSTGTSSSGTGTSAGTTGTSASTSGSGSGGGGGSGGGGSAGGEIVLTQSPATLSLSPGERATLSCRASKGVSTSGYSYLHWYQQKPGQAPRLLIYLASYLESGVPARFSGSGSGTDFTLTISSLEPEDFAVYYCQHSRDLPLTFGGGTKVEIKRTVAAPSVFIFPPSDEQLKSGTASVVCLLNNFYPREAKVQWKVDNALQSGNSQESVTEQDSKDSTYSLSSTLTLSKADYEKHKVYACEVTHQGLSSPVTKSFNRGECGGGGSGGGGSGGGGSGGGGSQVQLVQSGAEVKKPGASVKLSCKASGYIFTRYYMYWVKQRPGQGLEWIGEINPNNGGTKFNEKFKNRATLTVDKSISTAYMELSRLRSDDTAVYYCSREDDYDGTPFAMDYWGQGTLVTVSSASTKGPSVFPLAPSSKSTSGGTAALGCLVKDYFPEPVTVSWNSGALTSGVHTFPAVLQSSGLYSLSSVVTVPSSSLGTQTYICNVNHKPSNTKVDKRVEPKSCDKTHTCPPCPAPEFEGGPSVFLFPPKPKDTLMISRTPEVTCVVVDVSHEDPEVKFNWYVDGVEVHNAKTKPREEQYNSTYRVVSVLTVLHQDWLNGKEYKCKVSNKALPASIEKTISKAKGQPREPQVYTLPPSREEMTKNQVSLTCLVKGFYPSDIAVEWESNGQPENNYKTTPPVLDSDGSFFLYSKLTVDKSRWQQGNVFSCSVMHEALHNHYTQKSLSLSPG light: not shown
